Publication PMC10245715 (bioRxiv, 2023)

Biological target: p97 (valosin-containing protein, VCP), full-length, wildtype, human (human, UniProt P55072 1-806)
Assay: SEC

Chain of p97 (valosin-containing protein, VCP), full-length, wildtype, human (P55072 whole entry): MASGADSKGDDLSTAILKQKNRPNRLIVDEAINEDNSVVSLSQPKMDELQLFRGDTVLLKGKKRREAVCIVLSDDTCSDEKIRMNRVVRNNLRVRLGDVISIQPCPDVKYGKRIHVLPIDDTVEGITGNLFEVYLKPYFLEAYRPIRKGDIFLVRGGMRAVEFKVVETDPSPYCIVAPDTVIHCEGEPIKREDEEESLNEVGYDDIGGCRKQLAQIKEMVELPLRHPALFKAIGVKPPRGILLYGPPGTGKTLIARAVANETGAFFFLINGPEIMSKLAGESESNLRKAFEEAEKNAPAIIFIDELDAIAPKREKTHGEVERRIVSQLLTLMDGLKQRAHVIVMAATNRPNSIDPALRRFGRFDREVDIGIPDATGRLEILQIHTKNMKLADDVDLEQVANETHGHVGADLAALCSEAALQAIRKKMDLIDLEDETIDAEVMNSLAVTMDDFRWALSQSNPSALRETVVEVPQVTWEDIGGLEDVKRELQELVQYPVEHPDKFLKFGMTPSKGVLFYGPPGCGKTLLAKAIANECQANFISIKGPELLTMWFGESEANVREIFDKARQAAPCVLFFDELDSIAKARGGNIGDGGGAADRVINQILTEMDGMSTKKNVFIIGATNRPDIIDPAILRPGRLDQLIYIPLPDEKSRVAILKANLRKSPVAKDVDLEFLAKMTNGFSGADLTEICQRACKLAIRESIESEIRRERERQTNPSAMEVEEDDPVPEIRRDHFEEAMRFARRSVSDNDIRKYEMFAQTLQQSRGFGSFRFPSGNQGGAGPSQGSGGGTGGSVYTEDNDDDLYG

B1: UBXD1 double mutant containing both the lariat and H4 changes, full-length (natural protein)
chain: MKKFFQEFKADIKFKSAGPGQKLKESVGEKAHKEKPNQPAPRPPRQGPTNEAQMAAAAALARLEQKQSRAWGPTQSRDVTQERIQNKAVLTEASGSPEAPGTNVVSEPREEGSAHLAVPGVYFTCPLTGATLRKDQRDACIKEAILLHFSTDPVAASIMKIYTFNKDQDRVKLGVDTIAKYLDNIHLHPEEEKYRKIKLQNKVFQERINCLEGTHEFFEAIGFQKVLLPAQDQEDPEEFYVLSETTLAQPQSLERHKEQLLAAEPVRAKLDRQRRVFQPSPLASQFELPGDFFNLTAERIKEEQRLESEAVRRLSVLRTKAMREKEEQRGLRKYNYTLLRVRLPDGCLLQGTFYARERLGAVYGFVREALQSDWLPFELLASGGQKLSEDENLALNECGLVPSALLTFSWDMAVLEDIKAAGAEPDSILKPELLSAIEKLL
B1: binds.
